# In patent US8841085 (KOREA INSTITUTE OF SCIENCE AND TECHNOLOGY, dated 2014):
# Like-named read-outs stand apart in the source and are kept apart here.
# T1: MMP-7
# T1 sequence (P09237 95-267, species assumed, looked up): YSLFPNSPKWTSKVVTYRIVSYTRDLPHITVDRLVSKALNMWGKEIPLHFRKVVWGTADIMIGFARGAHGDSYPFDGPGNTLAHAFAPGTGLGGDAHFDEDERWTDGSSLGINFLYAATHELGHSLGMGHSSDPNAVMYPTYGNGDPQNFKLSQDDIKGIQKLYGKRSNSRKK
# What was measured:
# Experiment in all cases: cell-based or functional assay
# MMP-7 [1] = molecular target: T1, MMP-7
# MMP-9 [2] = molecular target: MMP-9
# MMP-13 [3] = molecular target: MMP-13
# MMP-3 [4] = molecular target: MMP-3
# MMP-2 [5] = molecular target: MMP-2
# MMP-7 [6] = molecular target: T1, MMP-7; remark: listed apart in the source
# MMP-9 [7] = molecular target: MMP-9; remark: listed apart in the source
# MMP-13 [8] = molecular target: MMP-13; remark: listed apart in the source
# MMP-3 [9] = molecular target: MMP-3; remark: listed apart in the source
# MMP-2 [10] = molecular target: MMP-2; remark: listed apart in the source
# MMP-7 [11] = molecular target: T1, MMP-7; remark: listed apart in the source
# MMP-9 [12] = molecular target: MMP-9; remark: listed apart in the source
# MMP-13 [13] = molecular target: MMP-13; remark: listed apart in the source
# MMP-3 [14] = molecular target: MMP-3; remark: listed apart in the source
# MMP-2 [15] = molecular target: MMP-2; remark: listed apart in the source
# MMP-7 [16] = molecular target: T1, MMP-7; remark: listed apart in the source
# MMP-9 [17] = molecular target: MMP-9; remark: listed apart in the source
# MMP-13 [18] = molecular target: MMP-13; remark: listed apart in the source
# MMP-3 [19] = molecular target: MMP-3; remark: listed apart in the source
# MMP-2 [20] = molecular target: MMP-2; remark: listed apart in the source
binder,measurement,setting,value
{Cy5.5}-GVPLSLTMGK(BHQ3)GG-{glycol chitosan‑cholanic acid nanoparticle} (not fully specified; printed as Cy5.5-Gly-Val-Pro-Leu-Ser-Leu-Thr-Met-Gly-Lys(BHQ3)-Gly-Gly-COOH),"fluorescent intensity (FI) recovered after 60 minutes, fold",MMP-7 [1],3.9 times
same,"fluorescent intensity (FI) recovered after 60 minutes, fold",MMP-9 [2],1.3 times
same,"fluorescent intensity (FI) recovered after 60 minutes, fold",MMP-13 [3],4.8 times
same,"fluorescent intensity (FI) recovered after 60 minutes, fold",MMP-3 [4],3.6 times
same,"fluorescent intensity (FI) recovered after 60 minutes, fold",MMP-2 [5],1.8 times
same,fluorescent intensity (FI) at 0 min,MMP-7 [6],328
same,fluorescent intensity (FI) at 10 min,MMP-7 [6],653
same,fluorescent intensity (FI) at 20 min,MMP-7 [6],993
same,fluorescent intensity (FI) at 30 min,MMP-7 [6],1160
same,fluorescent intensity (FI) at 40 min,MMP-7 [6],1250
same,fluorescent intensity (FI) at 50 min,MMP-7 [6],1310
same,fluorescent intensity (FI) at 60 min,MMP-7 [6],1280
same,fluorescent intensity (FI) at 0 min,MMP-9 [7],182
same,fluorescent intensity (FI) at 10 min,MMP-9 [7],186
same,fluorescent intensity (FI) at 20 min,MMP-9 [7],186
same,fluorescent intensity (FI) at 30 min,MMP-9 [7],187
same,fluorescent intensity (FI) at 40 min,MMP-9 [7],239
same,fluorescent intensity (FI) at 50 min,MMP-9 [7],233
same,fluorescent intensity (FI) at 60 min,MMP-9 [7],248
same,fluorescent intensity (FI) at 0 min,MMP-13 [8],287
same,fluorescent intensity (FI) at 10 min,MMP-13 [8],724
same,fluorescent intensity (FI) at 20 min,MMP-13 [8],1060
same,fluorescent intensity (FI) at 30 min,MMP-13 [8],1230
same,fluorescent intensity (FI) at 40 min,MMP-13 [8],1350
same,fluorescent intensity (FI) at 50 min,MMP-13 [8],1360
same,fluorescent intensity (FI) at 60 min,MMP-13 [8],1370
same,fluorescent intensity (FI) at 0 min,MMP-3 [9],336
same,fluorescent intensity (FI) at 10 min,MMP-3 [9],226
same,fluorescent intensity (FI) at 20 min,MMP-3 [9],408
same,fluorescent intensity (FI) at 30 min,MMP-3 [9],843
same,fluorescent intensity (FI) at 40 min,MMP-3 [9],946
same,fluorescent intensity (FI) at 50 min,MMP-3 [9],1070
same,fluorescent intensity (FI) at 60 min,MMP-3 [9],1230
same,fluorescent intensity (FI) at 0 min,MMP-2 [10],271
same,fluorescent intensity (FI) at 10 min,MMP-2 [10],245
same,fluorescent intensity (FI) at 20 min,MMP-2 [10],350
same,fluorescent intensity (FI) at 30 min,MMP-2 [10],280
same,fluorescent intensity (FI) at 40 min,MMP-2 [10],335
same,fluorescent intensity (FI) at 50 min,MMP-2 [10],426
same,fluorescent intensity (FI) at 60 min,MMP-2 [10],494
{Cy5.5}-GPLGVRGK(BHQ3)GG-{glycol chitosan‑cholanic acid nanoparticle} (not fully specified; printed as Cy5.5-Gly-Pro-Leu-Gly-Val-Arg-Gly-Lys(BHQ3)-Gly-Gly-COOH),fluorescent intensity (FI) at 0 min,MMP-7 [11],278
same,fluorescent intensity (FI) at 10 min,MMP-7 [11],288
same,fluorescent intensity (FI) at 20 min,MMP-7 [11],287
same,fluorescent intensity (FI) at 30 min,MMP-7 [11],290
same,fluorescent intensity (FI) at 40 min,MMP-7 [11],294
same,fluorescent intensity (FI) at 50 min,MMP-7 [11],300
same,fluorescent intensity (FI) at 60 min,MMP-7 [11],302
same,fluorescent intensity (FI) at 0 min,MMP-9 [12],350
same,fluorescent intensity (FI) at 10 min,MMP-9 [12],680
same,fluorescent intensity (FI) at 20 min,MMP-9 [12],1350
same,fluorescent intensity (FI) at 30 min,MMP-9 [12],2010
same,fluorescent intensity (FI) at 40 min,MMP-9 [12],2250
same,fluorescent intensity (FI) at 50 min,MMP-9 [12],2850
same,fluorescent intensity (FI) at 60 min,MMP-9 [12],3220
same,fluorescent intensity (FI) at 0 min,MMP-13 [13],665
same,fluorescent intensity (FI) at 10 min,MMP-13 [13],1930
same,fluorescent intensity (FI) at 20 min,MMP-13 [13],3930
same,fluorescent intensity (FI) at 30 min,MMP-13 [13],5290
same,fluorescent intensity (FI) at 40 min,MMP-13 [13],6510
same,fluorescent intensity (FI) at 50 min,MMP-13 [13],7610
same,fluorescent intensity (FI) at 60 min,MMP-13 [13],8180
same,fluorescent intensity (FI) at 0 min,MMP-3 [14],307
same,fluorescent intensity (FI) at 10 min,MMP-3 [14],285
same,fluorescent intensity (FI) at 20 min,MMP-3 [14],363
same,fluorescent intensity (FI) at 30 min,MMP-3 [14],421
same,fluorescent intensity (FI) at 40 min,MMP-3 [14],506
same,fluorescent intensity (FI) at 50 min,MMP-3 [14],537
same,fluorescent intensity (FI) at 60 min,MMP-3 [14],630
same,fluorescent intensity (FI) at 0 min,MMP-2 [15],379
same,fluorescent intensity (FI) at 10 min,MMP-2 [15],952
same,fluorescent intensity (FI) at 20 min,MMP-2 [15],1720
same,fluorescent intensity (FI) at 30 min,MMP-2 [15],2390
same,fluorescent intensity (FI) at 40 min,MMP-2 [15],2920
same,fluorescent intensity (FI) at 50 min,MMP-2 [15],3210
same,fluorescent intensity (FI) at 60 min,MMP-2 [15],3660
same,"fluorescent intensity (FI) recovered after 60 minutes, fold",MMP-7 [1],1 times
same,"fluorescent intensity (FI) recovered after 60 minutes, fold",MMP-9 [2],9.2 times
same,"fluorescent intensity (FI) recovered after 60 minutes, fold",MMP-13 [3],12.3 times
same,"fluorescent intensity (FI) recovered after 60 minutes, fold",MMP-3 [4],2 times
same,"fluorescent intensity (FI) recovered after 60 minutes, fold",MMP-2 [5],9.7 times
{Cy5.5}-GPLGMRGLGK(BHQ3)GG-{glycol chitosan‑cholanic acid nanoparticle} (not fully specified; printed as Cy5.5-Gly-Pro-Leu-Gly-Met-Arg-Gly-Leu-Gly-Lys(BHQ3)-Gly-Gly-COOH),fluorescent intensity (FI) at 0 min,MMP-7 [16],104
same,fluorescent intensity (FI) at 10 min,MMP-7 [16],90.1
same,fluorescent intensity (FI) at 20 min,MMP-7 [16],87.6
same,fluorescent intensity (FI) at 30 min,MMP-7 [16],87
same,fluorescent intensity (FI) at 40 min,MMP-7 [16],91.5
same,fluorescent intensity (FI) at 50 min,MMP-7 [16],94.9
same,fluorescent intensity (FI) at 60 min,MMP-7 [16],86.3
same,fluorescent intensity (FI) at 0 min,MMP-9 [17],101
same,fluorescent intensity (FI) at 10 min,MMP-9 [17],106
same,fluorescent intensity (FI) at 20 min,MMP-9 [17],109
same,fluorescent intensity (FI) at 30 min,MMP-9 [17],114
same,fluorescent intensity (FI) at 40 min,MMP-9 [17],128
same,fluorescent intensity (FI) at 50 min,MMP-9 [17],130
same,fluorescent intensity (FI) at 60 min,MMP-9 [17],133
same,fluorescent intensity (FI) at 0 min,MMP-13 [18],101
same,fluorescent intensity (FI) at 10 min,MMP-13 [18],131
same,fluorescent intensity (FI) at 20 min,MMP-13 [18],166
same,fluorescent intensity (FI) at 30 min,MMP-13 [18],234
same,fluorescent intensity (FI) at 40 min,MMP-13 [18],281
same,fluorescent intensity (FI) at 50 min,MMP-13 [18],355
same,fluorescent intensity (FI) at 60 min,MMP-13 [18],456
same,fluorescent intensity (FI) at 0 min,MMP-3 [19],102
same,fluorescent intensity (FI) at 10 min,MMP-3 [19],128
same,fluorescent intensity (FI) at 20 min,MMP-3 [19],143
same,fluorescent intensity (FI) at 30 min,MMP-3 [19],174
same,fluorescent intensity (FI) at 40 min,MMP-3 [19],200
same,fluorescent intensity (FI) at 50 min,MMP-3 [19],217
same,fluorescent intensity (FI) at 60 min,MMP-3 [19],249
same,fluorescent intensity (FI) at 0 min,MMP-2 [20],77.4
same,fluorescent intensity (FI) at 10 min,MMP-2 [20],91
same,fluorescent intensity (FI) at 20 min,MMP-2 [20],125
same,fluorescent intensity (FI) at 30 min,MMP-2 [20],151
same,fluorescent intensity (FI) at 40 min,MMP-2 [20],189
same,fluorescent intensity (FI) at 50 min,MMP-2 [20],238
same,fluorescent intensity (FI) at 60 min,MMP-2 [20],287
same,"fluorescent intensity (FI) recovered after 60 minutes, fold",MMP-7 [1],0.8 times
same,"fluorescent intensity (FI) recovered after 60 minutes, fold",MMP-9 [2],1.3 times
same,"fluorescent intensity (FI) recovered after 60 minutes, fold",MMP-13 [3],4.3 times
same,"fluorescent intensity (FI) recovered after 60 minutes, fold",MMP-3 [4],2.4 times
same,"fluorescent intensity (FI) recovered after 60 minutes, fold",MMP-2 [5],3.7 times
